According to US20150231240A1, “ANTI-C16ORF54 ANTIBODIES AND METHODS OF USE THEREOF” (priority 2012, published 2015):

Experiments:
[1] = tested on: human C16orf54 extracellular domain peptides; assay: C16orf54 peptide ELISA, human extracellular domain peptides; type: binding; conditions: human, cyno, or mouse extracellular domain peptides, not told apart; 10 μg/ml antibody
Procedure: (§1) Anti-C16orf54 antibodies which bind to human C16orf54, including antibodies that are crossreactive with cyno C16orf54, were tested for their binding to various peptides derived from C16orf54 in a peptide ELISA. A 384-well high binding black microplate (Greiner) was incubated with 2 μg/ml of protein (human, cyno, or mouse extracellular domain peptides) for 16 hours, incubated for 1 hr with a blocking buffer (PBS with 5% Fetal Bovine Serum), washed four times with TBS with Tween, incubated for 1 hour with 10 μg/ml of anti-C16orf54 antibody, washed four times with TBS with Tween, incubated for 1 hour with 10 μg/ml of Peroxidase-AffiniPure Goat Anti-Mouse IgG, Fcγ Fragment Specific (Jackson ImmunoResearch), washed four times with TBS with Tween, and peroxidase was detected with a luminometer (Molecular Devices) upon addition of SuperSignal® ELISA Pico Chemiluminescent Substrate (Thermo Scientific). The luminescence signal was determined.

[2] = target: T1, extracellular domain of c16orf54 (amino acids 1-31) fused to human IgG1 Fc (Homo sapiens, UniProt Q6UWD8); assay: C16orf54 peptide-Fc fusion protein ELISA; type: binding; conditions: serial dilution of antibody; HRP-conjugated anti mouse secondary
T1 construct: the extracellular domain of c16orf54 (amino acids 1-31) either N terminal or C-terminal to a human IgG1 Fc domain; made in house; host or cells: 293 T cells, transient; Protein A purification
T1 sequence (Q6UWD8 1-31 limits assumed): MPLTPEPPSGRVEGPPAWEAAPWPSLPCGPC
Procedure: Anti-C16orf54 antibodies which bind to human C16orf54, including antibodies that are crossreactive with cyno C16orf54, were tested for their binding to various peptides derived from C16orf54 that were fused to human IgG (e.g., IgG1) constant regions to generate various peptide-Fc fusion proteins in an Fc-based ELISA. An exemplary Fc sequence comprises an IgG1 Hinge region sequence and IgG1 CH3 and […] domain sequences.
The fusion proteins were transiently expressed in 293 T cells. Protein was purified from the 293 expression supernatants by Protein A-based affinity purification. Exemplary C16 peptide-Fc fusion constructs that were made and purified are shown with their protein yield in Table 38. ELISA assays were performed by coating 384 well plates with the fusion proteins overnight at 4C. Antibodies were analyzed by serial dilution with concentrations ranging from 40 ug/mL to […]. Binding was detected with an HRP-conjugated anti mouse secondary antibody.

[3] = target: T2, C16orf54 on cell lines and primary samples (Homo sapiens, UniProt Q6UWD8); assay: C16orf54 copy number enumeration by flow cytometry with AlexaFluor647 conjugated antibody; type: binding
T2 sequence (Q6UWD8 1-224): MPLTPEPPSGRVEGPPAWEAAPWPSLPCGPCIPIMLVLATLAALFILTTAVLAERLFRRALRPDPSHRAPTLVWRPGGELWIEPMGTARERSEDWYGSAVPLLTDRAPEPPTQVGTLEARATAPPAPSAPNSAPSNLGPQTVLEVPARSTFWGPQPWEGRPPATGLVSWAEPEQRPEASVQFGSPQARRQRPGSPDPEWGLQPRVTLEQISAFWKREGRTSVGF
Procedure: In some assays, human cell lines and primary samples were immunofluorescently stained using an anti-C16orf54 monoclonal antibody R29-7-1C that was conjugated to AlexaFluor647, and copy number of C16orf54 was determined by interpolation on a calibration curve generated by Quantum™ Simply Cellular® bead standards (Bangs Laboratories, Inc.) Copy number results are shown in Table 39 various cell lines and primary samples expressing C16orf54. […]

[4] = target: T3, cynomolgus monkey C16orf54 (cynomolgus monkey (Macaca fascicularis), UniProt Q6UWD8 1-224 (human entry)); assay: flow cytometry titration, F279-cyno-C16orf54 cells
T3 construct: also called cyno C16orf54; cyno-C16orf54
T3 chain: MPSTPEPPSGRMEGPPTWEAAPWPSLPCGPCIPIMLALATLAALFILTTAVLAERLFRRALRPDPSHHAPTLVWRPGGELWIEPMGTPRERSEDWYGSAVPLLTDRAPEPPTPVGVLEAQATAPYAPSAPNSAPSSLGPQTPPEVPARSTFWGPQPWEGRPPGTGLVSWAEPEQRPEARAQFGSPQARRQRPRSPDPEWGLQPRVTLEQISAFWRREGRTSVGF
Procedure: Anti-C16orf54 antibodies which bound to human C16orf54 were tested for their binding to cells expressing human C16orf54 and cells expressing cyno C16orf54. […] Median fluorescence intensities for each primary antibody concentration were used to derive a flow EC50/Kd using the one site-specific binding with Hill slope model in Prism (GraphPad Prism® Software). Results are shown as flow EC50 in Table 35.

[5] = target: T4, human C16orf54 ECD fragment aa1-15 (human); assay: peptide ELISA, 2 ug/ml peptide coated, 10 ug/ml antibody
T4 peptide: MPLTPEPPSGRVEGP
Procedure: as §1

[6] = target: T5, human C16orf54 ECD fragment aa9-24 (human); assay: as above
T5 peptide: SGRVEGPPAWEAAPWP
Procedure: as §1

[7] = target: T6, human C16orf54 (human, UniProt Q6UWD8 1-224); assay: flow cytometry, REH leukemia cells (endogenous C16orf54), 3 repeats
T6 construct: also called huC16orf54; hC16orf54
T6 sequence: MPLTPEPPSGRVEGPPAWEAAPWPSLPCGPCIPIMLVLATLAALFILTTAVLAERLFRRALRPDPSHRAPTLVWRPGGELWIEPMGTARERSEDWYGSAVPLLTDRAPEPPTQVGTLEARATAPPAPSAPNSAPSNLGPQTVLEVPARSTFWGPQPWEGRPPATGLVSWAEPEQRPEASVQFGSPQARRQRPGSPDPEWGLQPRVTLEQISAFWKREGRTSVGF

[8] = target: T6, human C16orf54; assay: flow cytometry, WSU-DLCL2 lymphoma cells (endogenous C16orf54), 1 repeat
[9] = target: T6, human C16orf54; assay: flow cytometry, WSU-FSCCL lymphoma cells (endogenous C16orf54), 3 repeats
[10] = target: T6, human C16orf54; assay: flow cytometry, NCI-H716 colon cancer cells (endogenous C16orf54), 2 repeats
[11] = target: T7, N-terminal 32 amino acids of huC16orf54 coupled to biotin (human, biotin at the C-terminus); assay: biolayer interferometry (OctetQK384), purified antibody on streptavidin sensors coated with the biotinylated peptide
T7 construct: also called 32 amino acid N-terminal extracellular domain
T7 peptide: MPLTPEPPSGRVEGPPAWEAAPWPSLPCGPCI
Procedure: Affinity measurements of purified anti-huC16orf54 antibodies were carried out on the OctetQK384® sytem (ForteBio). After coating streptavidin sensors with the N-terminal 32 amino acids of huC16orf54 coupled to biotin at the C-terminus, association and dissociation of purified anti-huC16orf54 antibodies was monitored. KD values were derived using ForteBio's software.

B1: R29-7-1C: murine anti-C16orf54 monoclonal antibody, IgG2a; VH SEQ ID NO: 8, VL SEQ ID NO: 10 (antibody, V domains shown)
VH: MRVLILLWLFTAFPGILSDVQLQESGPGLVKPSQSLSLTCTVTGYSITSDYAWNWIRQFPGNKLEWMGYISYSGSIRYNPSLKSRISITRDTSKNQFFLQLNSVTTEDTATYYCAREKYDNYYYAMDYWGQGTSVTVSS
VL: MDSQAQVLMLLLLWVSGTCGDIVMSQSPSSLAVSVGEKVTLSCKSSQNLLYSTNQKNYLAWYQQKPGQSPKLLIYWASTRESGVPDRFTGSGSGTDFTLTISSVKAEDLAVYYCQQYYSYRTFGGGTKLEIK
modifications: R29-7-1C heavy chain variable region; R29-7-1C light chain variable region
binding to peptides derived from the extracellular domain of C16orf54 (peptide ELISA) [1]: bind to the various peptides derived from the extracellular domain (ECD) of C16orf54
binding to peptide-Fc fusion proteins (Fc-based ELISA) [2]: able to bind to the peptide-Fc fusion proteins
Bang's analysis Average copy # ([3]; Human cell line KG1/lymphoblast): 19,975 (1)
Bang's analysis Average copy # ([3]; Human cell line KG1/myeloblast): 29,971 (10)
Bang's analysis Average copy # ([3]; Human cell line KG1A): 11,198 (1)
Bang's analysis Average copy # ([3]; Human cell line WSU-DLCL2): 5,517 (3)
Bang's analysis Average copy # ([3]; Human cell line WSU-FSCCL): 4,221 (3)
Bang's analysis Average copy # ([3]; Primary Sample CLL 1): 3,979 (1)
Bang's analysis Average copy # ([3]; Primary Sample CLL 2): 10,515 (1)
Bang's analysis Average copy # ([3]; Primary Sample CLL 3): 12,277 (1)
Bang's analysis Average copy # ([3]; Primary Sample CLL 4): 11,240 (1)
Bang's analysis Average copy # ([3]; Primary Sample Lymphoma 1): 10,630 (1)
Bang's analysis Average copy # ([3]; Primary Sample Lymphoma 2): 34,397 (1)
Bang's analysis Average copy # ([3]; Primary Sample MM 1): 5,798 (1)
Bang's analysis Average copy # ([3]; Primary Sample MM 2): 7,590 (1)

B2: R29-67-7A: murine anti-C16orf54 monoclonal antibody, IgG2a; VH SEQ ID NO: 12, VL SEQ ID NO: 14 (antibody, V domains shown)
VH: MRVLILLWLFTAFPGILSDVQLQESGPGLVKPSQSLSLTCTVTGYSITSDYAWNWIRQFPGNKLEWMGYINYSGRTRYNPSLNSRISLTRDTSTNQFFLQLNSVTTEDTATYYCARENYDYEFYAMDYWGQGTSVTVSS
VL: MESQAQVLMLLLLWVSGTCGDIVMSQSPSSLAVSVGEKVTMSCKSSQNLLYSSNQKNYLAWYQQKPGQSPKLLIYWASTRESGVPDRFTGSGSGTDFTLTISSVKAEDLAVYYCQQYYIYRTFGGGTKLEIK
modifications: R29-67-7A heavy chain variable region; R29-67-7A light chain variable region
binding to peptides derived from the extracellular domain of C16orf54 (peptide ELISA) [1]: bind to the various peptides derived from the extracellular domain (ECD) of C16orf54
binding to peptide-Fc fusion proteins (Fc-based ELISA) [2]: able to bind to the peptide-Fc fusion proteins

B3: R29-7-1C (antibody, V domains shown)
VH: DVQLQESGPGLVKPSQSLSLTCTVTGYSITSDYAWNWIRQFPGNKLEWMGYISYSGSIRYNPSLKSRISITRDTSKNQFFLQLNSVTTEDTATYYCAREKYDNYYYAMDYWGQGTSVTVSS
VL: DIVMSQSPSSLAVSVGEKVTLSCKSSQNLLYSTNQKNYLAWYQQKPGQSPKLLIYWASTRESGVPDRFTGSGSGTDFTLTISSVKAEDLAVYYCQQYYSYRTFGGGTKLEIK
notes: Murine monoclonal IgG2a from a hybridoma
EC50 [4]: 2.7 nM
binding result [5]: binds
binding result [6]: binds
Average MFI fold change relative to isotype control [7]: 6.4 fold
Average MFI fold change relative to isotype control [8]: 9.2 fold
Average MFI fold change relative to isotype control [9]: 13.7 fold
Average MFI fold change relative to isotype control [10]: 3.4 fold
Kd [11]: 1.1 nM
koff [11]: 7.95e-05 s⁻¹
kon [11]: 68100 M⁻¹ s⁻¹
